Values joined by “and” are separate entries in the source; they are usually repeats but may differ in a detail not shown here. Equal entries are not always repeated. Where two headings read alike, the source gives them in different places.
How the values were obtained:
Assay in all cases: cryo-EM structure
[1] = biological target: BG505 HT2 soluble Env heterotrimer (two BG505 SOSIP.664 protomers, one D7324-tagged BG505-D368R SOSIP.664 protomer) (HIV-1 (clade A, BG505))
[2] = biological target: BG505 HT1 soluble Env heterotrimer (two BG505-D368R SOSIP.664 protomers, one D7324-tagged BG505 SOSIP.664 protomer) (HIV-1 (clade A, BG505))
[3] = biological target: BG505 HT2 soluble Env heterotrimer (two BG505 SOSIP.664 protomers, one D7324-tagged BG505-D368R SOSIP.664 protomer) (HIV-1 (clade A, BG505)); remark: listed apart in the source
[4] = biological target: BG505 HT1 soluble Env heterotrimer (two BG505-D368R SOSIP.664 protomers, one D7324-tagged BG505 SOSIP.664 protomer) (HIV-1 (clade A, BG505)); remark: listed apart in the source
[5] = biological target: B41 HT2 soluble Env heterotrimer (two B41 SOSIP.664 protomers, one D7324-tagged B41-D368R SOSIP.664 protomer) (HIV-1 (clade B, B41))

Substance	stoichiometry N [1]	stoichiometry N [2]	stoichiometry N [3]	stoichiometry N [4]	stoichiometry N [5]
CD4 D1-D4 (domains 1-4), soluble (receptor)	2 and 1	1	3	3	–
CD4 (as used in the cryo-EM complex with B41 HT2; version not stated) (from UniProt P01730 26-396) (receptor)	–	–	–	–	2
